Reference: patent US20250073302A1 (PURDUE RESEARCH FOUNDATION, published 2025)
Non-standard residues stand in square brackets, D forms with d. Bpa = N[C@@H](Cc1ccc(C(=O)c2ccccc2)cc1)C(=O)O; dBpa = N[C@H](Cc1ccc(C(=O)c2ccccc2)cc1)C(=O)O; dPhe(3,4-F2) = N[C@H](Cc1ccc(F)c(F)c1)C(=O)O; Phe(3-F) = N[C@@H](Cc1cccc(F)c1)C(=O)O; Phe(4-F) = N[C@@H](Cc1ccc(F)cc1)C(=O)O; dPhe(3-F) = N[C@H](Cc1cccc(F)c1)C(=O)O; dPhe(4-F) = N[C@H](Cc1ccc(F)cc1)C(=O)O; dPra = C#CC[C@@H](N)C(=O)O; Dap = NC[C@H](N)C(=O)O

B1: CyPPS17 (peptide)
peptide: cyclo(T[dL]F[dY]R[dA])
SMILES: CC(C)C[C@H]1NC(=O)[C@H]([C@@H](C)O)NC(=O)[C@@H](C)NC(=O)[C@H](CCCNC(=N)N)NC(=O)[C@@H](Cc2ccc(O)cc2)NC(=O)[C@H](Cc2ccccc2)NC1=O
B2: CyPPS11 (peptide)
peptide: cyclo(T[dK]F[dF]R[dA])
SMILES: C[C@H]1NC(=O)[C@H](CCCNC(=N)N)NC(=O)[C@@H](Cc2ccccc2)NC(=O)[C@H](Cc2ccccc2)NC(=O)[C@@H](CCCCN)NC(=O)[C@H]([C@@H](C)O)NC1=O
B3: CyPPS32 (peptide)
peptide: cyclo(T[dL][Bpa][dF]R[dA])
SMILES: CC(C)C[C@H]1NC(=O)[C@H]([C@@H](C)O)NC(=O)[C@@H](C)NC(=O)[C@H](CCCNC(=N)N)NC(=O)[C@@H](Cc2ccccc2)NC(=O)[C@H](Cc2ccc(C(=O)c3ccccc3)cc2)NC1=O
B4: CyPPS6 (peptide)
peptide: cyclo(T[dL]F[dF]A[dR])
SMILES: CC(C)C[C@H]1NC(=O)[C@H]([C@@H](C)O)NC(=O)[C@@H](CCCNC(=N)N)NC(=O)[C@H](C)NC(=O)[C@@H](Cc2ccccc2)NC(=O)[C@H](Cc2ccccc2)NC1=O
B5: CyPPS16 (peptide)
peptide: cyclo(T[dL]Y[dF]R[dA])
SMILES: CC(C)C[C@H]1NC(=O)[C@H]([C@@H](C)O)NC(=O)[C@@H](C)NC(=O)[C@H](CCCNC(=N)N)NC(=O)[C@@H](Cc2ccccc2)NC(=O)[C@H](Cc2ccc(O)cc2)NC1=O
B6: CyPPS28 (peptide)
peptide: cyclo(T[dV]F[dF]A[dR])
SMILES: CC(C)[C@H]1NC(=O)[C@H]([C@@H](C)O)NC(=O)[C@@H](CCCNC(=N)N)NC(=O)[C@H](C)NC(=O)[C@@H](Cc2ccccc2)NC(=O)[C@H](Cc2ccccc2)NC1=O
B7: CyPPS10 (peptide)
peptide: cyclo(T[dD]F[dF]R[dA])
SMILES: C[C@H]1NC(=O)[C@H](CCCNC(=N)N)NC(=O)[C@@H](Cc2ccccc2)NC(=O)[C@H](Cc2ccccc2)NC(=O)[C@@H](CC(=O)O)NC(=O)[C@H]([C@@H](C)O)NC1=O
B8: CyPPS7 (peptide)
peptide: cyclo(K[dL]F[dF]R[dA])
SMILES: CC(C)C[C@H]1NC(=O)[C@H](CCCCN)NC(=O)[C@@H](C)NC(=O)[C@H](CCCNC(=N)N)NC(=O)[C@@H](Cc2ccccc2)NC(=O)[C@H](Cc2ccccc2)NC1=O
B9: CyPPS34 (peptide)
peptide: cyclo(TAF[dF]A[dR])
SMILES: C[C@@H]1NC(=O)[C@H]([C@@H](C)O)NC(=O)[C@@H](CCCNC(=N)N)NC(=O)[C@H](C)NC(=O)[C@@H](Cc2ccccc2)NC(=O)[C@H](Cc2ccccc2)NC1=O
B10: CyPPS35 (peptide)
peptide: cyclo(T[dA]F[dF]A[dR])
SMILES: C[C@@H]1NC(=O)[C@@H](Cc2ccccc2)NC(=O)[C@H](Cc2ccccc2)NC(=O)[C@@H](C)NC(=O)[C@H]([C@@H](C)O)NC(=O)[C@@H](CCCNC(=N)N)NC1=O
B11: CyPPS12 (peptide)
peptide: cyclo(T[dI]F[dF]R[dA])
SMILES: CC[C@@H](C)[C@H]1NC(=O)[C@H]([C@@H](C)O)NC(=O)[C@@H](C)NC(=O)[C@H](CCCNC(=N)N)NC(=O)[C@@H](Cc2ccccc2)NC(=O)[C@H](Cc2ccccc2)NC1=O
B12: CyPPS22 (peptide)
peptide: cyclo(T[dL]F[dF]R[dS])
SMILES: CC(C)C[C@H]1NC(=O)[C@H]([C@@H](C)O)NC(=O)[C@@H](CO)NC(=O)[C@H](CCCNC(=N)N)NC(=O)[C@@H](Cc2ccccc2)NC(=O)[C@H](Cc2ccccc2)NC1=O
B13: CyPPS2 (peptide)
peptide: cyclo(A[dL]F[dF]R[dA])
SMILES: CC(C)C[C@H]1NC(=O)[C@H](C)NC(=O)[C@@H](C)NC(=O)[C@H](CCCNC(=N)N)NC(=O)[C@@H](Cc2ccccc2)NC(=O)[C@H](Cc2ccccc2)NC1=O
B14: CyPPS31 (peptide)
peptide: cyclo(T[dL][Phe(3-F)][dF]R[dA])
SMILES: CC(C)C[C@H]1NC(=O)[C@H]([C@@H](C)O)NC(=O)[C@@H](C)NC(=O)[C@H](CCCNC(=N)N)NC(=O)[C@@H](Cc2ccccc2)NC(=O)[C@H](Cc2cccc(F)c2)NC1=O
B15: CyPPS21 (peptide)
peptide: cyclo(T[dL]F[dBpa]R[dA])
SMILES: CC(C)C[C@H]1NC(=O)[C@H]([C@@H](C)O)NC(=O)[C@@H](C)NC(=O)[C@H](CCCNC(=N)N)NC(=O)[C@@H](Cc2ccc(C(=O)c3ccccc3)cc2)NC(=O)[C@H](Cc2ccccc2)NC1=O
B16: CyPPS30 (peptide)
peptide: cyclo(T[dL]R[dF]R[dA])
SMILES: CC(C)C[C@H]1NC(=O)[C@H]([C@@H](C)O)NC(=O)[C@@H](C)NC(=O)[C@H](CCCNC(=N)N)NC(=O)[C@@H](Cc2ccccc2)NC(=O)[C@H](CCCNC(=N)N)NC1=O
B17: CyPPS20 (peptide)
peptide: cyclo(T[dL]F[dPhe(3,4-F2)]R[dA])
SMILES: CC(C)C[C@H]1NC(=O)[C@H]([C@@H](C)O)NC(=O)[C@@H](C)NC(=O)[C@H](CCCNC(=N)N)NC(=O)[C@@H](Cc2ccc(F)c(F)c2)NC(=O)[C@H](Cc2ccccc2)NC1=O
B18: CyPPS5 (peptide)
peptide: cyclo(T[dL]F[dA]R[dA])
SMILES: CC(C)C[C@H]1NC(=O)[C@H]([C@@H](C)O)NC(=O)[C@@H](C)NC(=O)[C@H](CCCNC(=N)N)NC(=O)[C@@H](C)NC(=O)[C@H](Cc2ccccc2)NC1=O
B19: CyPPS3 (peptide)
peptide: cyclo(T[dA]F[dF]R[dA])
SMILES: C[C@H]1NC(=O)[C@H](CCCNC(=N)N)NC(=O)[C@@H](Cc2ccccc2)NC(=O)[C@H](Cc2ccccc2)NC(=O)[C@@H](C)NC(=O)[C@H]([C@@H](C)O)NC1=O
B20: CyPPS15 (peptide)
peptide: cyclo(T[dL][Phe(4-F)][dF]R[dA])
SMILES: CC(C)C[C@H]1NC(=O)[C@H]([C@@H](C)O)NC(=O)[C@@H](C)NC(=O)[C@H](CCCNC(=N)N)NC(=O)[C@@H](Cc2ccccc2)NC(=O)[C@H](Cc2ccc(F)cc2)NC1=O
B21: CyPPS18 (peptide)
peptide: cyclo(T[dL]F[dPhe(4-F)]R[dA])
SMILES: CC(C)C[C@H]1NC(=O)[C@H]([C@@H](C)O)NC(=O)[C@@H](C)NC(=O)[C@H](CCCNC(=N)N)NC(=O)[C@@H](Cc2ccc(F)cc2)NC(=O)[C@H](Cc2ccccc2)NC1=O
B22: CyPPS4 (peptide)
peptide: cyclo(T[dL]A[dF]R[dA])
SMILES: CC(C)C[C@H]1NC(=O)[C@H]([C@@H](C)O)NC(=O)[C@@H](C)NC(=O)[C@H](CCCNC(=N)N)NC(=O)[C@@H](Cc2ccccc2)NC(=O)[C@H](C)NC1=O
B23: CyPPS19 (peptide)
peptide: cyclo(T[dL]F[dPhe(3-F)]R[dA])
SMILES: CC(C)C[C@H]1NC(=O)[C@H]([C@@H](C)O)NC(=O)[C@@H](C)NC(=O)[C@H](CCCNC(=N)N)NC(=O)[C@@H](Cc2cccc(F)c2)NC(=O)[C@H](Cc2ccccc2)NC1=O
B24: CyPPS36 (peptide)
peptide: cyclo(A[dA]F[dF]A[dR])
SMILES: C[C@@H]1NC(=O)[C@@H](CCCNC(=N)N)NC(=O)[C@H](C)NC(=O)[C@@H](Cc2ccccc2)NC(=O)[C@H](Cc2ccccc2)NC(=O)[C@@H](C)NC1=O
B25: CyPPS29 (peptide)
peptide: cyclo(T[dL]L[dF]R[dA])
SMILES: CC(C)C[C@@H]1NC(=O)[C@@H](CC(C)C)NC(=O)[C@H]([C@@H](C)O)NC(=O)[C@@H](C)NC(=O)[C@H](CCCNC(=N)N)NC(=O)[C@@H](Cc2ccccc2)NC1=O
B26: CyPPS25 (peptide)
peptide: cyclo([dL]F[dF]K[dA])
SMILES: CC(C)C[C@H]1NC(=O)[C@@H](C)NC(=O)[C@H](CCCCN)NC(=O)[C@@H](Cc2ccccc2)NC(=O)[C@H](Cc2ccccc2)NC1=O
B27: CyPPS27 (peptide)
peptide: cyclo(TVF[dF]A[dR])
SMILES: CC(C)[C@@H]1NC(=O)[C@H]([C@@H](C)O)NC(=O)[C@@H](CCCNC(=N)N)NC(=O)[C@H](C)NC(=O)[C@@H](Cc2ccccc2)NC(=O)[C@H](Cc2ccccc2)NC1=O

Target: 20S core particle (CP) proteasome
Assay: cell-based or functional assay

| Binder | TAS-1 (percent stimulation of 20S CP) |
| --- | --- |
| B1 | 203 % of DMSO |
| B2 | 101 % of DMSO |
| B3 | 242 % of DMSO |
| B4 | 305 % of DMSO |
| B5 | 198 % of DMSO |
| B6 | 289 % of DMSO |
| B7 | 173 % of DMSO |
| B8 | 226 % of DMSO |
| B9 | 126 % of DMSO |
| B10 | 259 % of DMSO |
| B11 | 124 % of DMSO |
| cyclo(T[dL]F[dF][Dap][dR]) (also: AA5 described as D-Dap in one passage, DAP in another) [CyPPS24] | 370 % of DMSO |
| B12 | 298 % of DMSO |
| B13 | 241 % of DMSO |
| B14 | 199 % of DMSO |
| B15 | 278 % of DMSO |
| B16 | 212 % of DMSO |
| B17 | 283 % of DMSO |
| B18 | 170 % of DMSO |
| B19 | 178 % of DMSO |
| B20 | 280 % of DMSO |
| B21 | 246 % of DMSO |
| B22 | 275 % of DMSO |
| B23 | 287 % of DMSO |
| B24 | 185 % of DMSO |
| B25 | 152 % of DMSO |
| cyclo(T[dL]F[dF]R[dPra]) [CyPPS33] | 238 % of DMSO |
| B26 | 297 % of DMSO |
| B27 | 109 % of DMSO |
